In PMC11237755:

Tests used:
Conditions in all cases: LightShift Chemiluminescent EMSA kit (binding buffer, salt and pH not given), 20 min room temperature; 20 fmol probe, 6% 0.5x TBE gel (TtdV/TtdW); 50 fmol …
[1] = target: T1, TtdV-His6 (Salmonella enterica serovar Typhimurium IR715 (ATCC14028 NalR)) (UniProt Q8ZLP8); experiment: EMSA
T1 sequence: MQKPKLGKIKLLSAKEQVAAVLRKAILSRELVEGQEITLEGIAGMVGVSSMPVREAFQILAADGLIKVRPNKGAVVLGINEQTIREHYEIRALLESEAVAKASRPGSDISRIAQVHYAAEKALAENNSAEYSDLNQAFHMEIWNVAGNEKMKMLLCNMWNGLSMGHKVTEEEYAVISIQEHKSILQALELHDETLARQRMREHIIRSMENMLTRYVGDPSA

[2] = tested on: T2, His6-ArcA (unphosphorylated) (Salmonella enterica serovar Typhimurium IR715 (ATCC14028 NalR)), ORF:c309dbee; experiment: EMSA
T2 sequence: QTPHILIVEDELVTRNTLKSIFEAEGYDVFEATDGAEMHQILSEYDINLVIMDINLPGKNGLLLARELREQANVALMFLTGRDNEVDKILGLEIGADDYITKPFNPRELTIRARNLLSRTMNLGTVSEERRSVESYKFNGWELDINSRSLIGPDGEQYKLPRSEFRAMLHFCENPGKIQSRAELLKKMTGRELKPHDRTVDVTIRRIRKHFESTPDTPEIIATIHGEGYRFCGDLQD

[3] = tested on: T3, His6-ArcA~P (Salmonella enterica serovar Typhimurium IR715 (ATCC14028 NalR)), ORF:c309dbee; experiment: EMSA
T3 sequence: T2 sequence

[4] = target: T4, TtdW-His6 (Salmonella enterica serovar Typhimurium IR715 (ATCC14028 NalR)) (UniProt Q8ZLP7); experiment: competition
T4 sequence: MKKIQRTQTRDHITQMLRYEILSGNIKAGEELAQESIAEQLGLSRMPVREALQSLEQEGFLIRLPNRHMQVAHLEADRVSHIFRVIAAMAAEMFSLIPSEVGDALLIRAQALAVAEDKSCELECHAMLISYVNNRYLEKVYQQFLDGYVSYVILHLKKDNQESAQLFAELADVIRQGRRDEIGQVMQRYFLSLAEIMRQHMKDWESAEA

[5] = tested on: T3, His6-ArcA~P (Salmonella enterica serovar Typhimurium IR715 (ATCC14028 NalR)), ORF:c309dbee; experiment: competition
[6] = target: T4, TtdW-His6 (Salmonella enterica serovar Typhimurium IR715 (ATCC14028 NalR)); experiment: EMSA

Sequence	binding [1]	binding [2]	binding [3]	binding [4]	binding [5]	binding [6]
ACCGAAGAAGAGTATGCCGTGATTTCCATTCAGGAACATAAAAGTATTCTGCAAGCTCTTGAACTTCATGATGAAACATTGGCACGCCAGCGCATGCGCGAACACATTATTCGCTCAATGGAGAATATGCTGACCCGCTATGTTGGTGACCCTTCTGCCTGATCTTTTCGCCTGCGTGAGCATCGCAGGCGCTTCAACCAATTCTTCAATTCTATTAATCACGTCCAGTAACGATCTAACCACGATCTTGATGTAGC (double strand) [Probe 3]	no binding	binds	binds			
GCCTTCTTCGGTGACCTTATGGCCCATCGACAGGCCGTTCCACATATTACAGAGCAACATTTTCATTTTTTCGTTGCCAGCAACATTCCATATTTCCATATGAAATGCCTGATTCAGGTCGGAGTATTCCGCCGAGTTATTTTCCGCGAGAGCCTTTTCAGCGGCATAATGCACCTGGGCTATCCGCGAGATATCGGAGCCAGGACGAGAAGCTTTAGCCACCGCCTCACTTTCTAACAGCGCGCGAATTTCATAGTGTTCACGGATGG (double strand) [Probe 1]	no binding	binds	binds			
CGTATGCTGACCCGCTATGTTGGTGACCCTTCTGCCTGATCTTTTCGCCTGCGTGAGCATCGCAGGCGCTTCAACCAATTCTTCAATTCTATTAATCACGTCCAGTAACGATCTAACCACGATCTTGATGTAGATCCCACTCCTGCATCTTTCCTGAGAAACGATTTGACTTAGTTTTTGTATGGGAATAATTTCTCCCTGTCAACATTGGATACAATATCATATATCATTGATTGGATAATTATAAATATGGAACCCATTACCCTTACCTTATGTTTATTGGTGTTCGCCC (double strand) [Probe 4 unlabeled competitor]				binds	binds	
CCTAACTCGGCGGAATACTCCGACCTGAATCAGGCATTTCATATGGAAATATGGAATGTTGCTGGCAACGAAAAAATGAAAATGTTGCTCTGTAATATGTGGAACGGCCTGTCGATGGGCCATAAGGTCACCGAAGAAGAGTATGCCGTGATTTCCATTCAGGAACATAAAAGTATTCTGCAAGCTCTTGAACTTCATGATGAAACATTGGCACGCCAGCGCATGCGCGAACACATTATTCGCTCAATGGAGAATATGCTGACCCGCTATGTTG (double strand) [Probe 2]	no binding	binds	binds			
CGTATGCTGACCCGCTATGTTGGTGACCCTTCTGCCTGATCTTTTCGCCTGCGTGAGCATCGCAGGCGCTTCAACCAATTCTTCAATTCTATTAATCACGTCCAGTAACGATCTAACCACGATCTTGATGTAGATCCCACTCCTGCATCTTTCCTGAGAAACGATTTGACTTAGTTTTTGTATGGGAATAATTTCTCCCTGTCAACATTGGATACAATATCATATATCATTGATTGGATAATTATAAATATGGAACCCATTACCCTTACCTTATGTTTATTGGTGTTCGCCC (double strand) [Probe 4]		binds	binds			binds
